The data set addresses T1, MgrA (Staphylococcus aureus XN108) (UniProt P0C1S0).
T1 sequence: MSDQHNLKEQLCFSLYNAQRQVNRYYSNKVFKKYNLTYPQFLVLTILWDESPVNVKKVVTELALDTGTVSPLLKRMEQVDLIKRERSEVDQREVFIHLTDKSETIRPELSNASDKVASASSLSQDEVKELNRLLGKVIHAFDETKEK
In words: competition.

Consider “TTTACGTGCAGCACGTTCACGTACCTCAAAGTTACCGAAACCAATTAATTGTACTTTTTCACCTTTAGCAAGTGAGTTTTGGATTGATTCGAATACAGCATCTACTGCTGAACCAGCTTCTTTTT (double strand) [hu fragment (competitor)]”, for which the binding result was “no binding”.
